{"source": "patent US20150086555A1", "binders": {"B1": {"name": "TCN-542 (5079_A16) (antibody, V domains shown)", "VH": "QVQLQESGPGLVKPSQTLSLTCTVSGGSISSGNYYWNWVRQHPGKGLEWIGYIYYRGSTFYNPSLKSRVTISIDTSKNQFSLRLSSVTAADTAVYYCAKDTRSSLDNYQYGMDVWGQGTTVTVSS", "VL": "QTVVTQEPSLTVSPGGTVTLTCASSTGAVTSSYFPNWFQQKPGQAPRPLIYSTTIRHSWTPARFSGSLLGGKAALTLSGVQPEDEADYYCLLYSGGDPVAFGGGTKLTVL"}, "B2": {"name": "TCN-526 (5084_C17) (antibody, V domains shown)", "VH": "EVLMVESGGGLVQPGGSVRLSCVASGFSFSSHWMTWVRQAPGKGLEWVANIEDDGGDKYYVDSVKGRFIISRDNAKNSVYLQMNSLRAEDTAVYFCARGSGSSDRSDYDPHYYYYLDVWGKGATVTVSS", "VL": "DIQLTQSPSSLSASVGDRVTITCRASQSISRYLNWYQQKPGKAPKLLLFAASTLLDGVPSRFSGSGSGTDFTLTISSLQPEDFATYYCQRNHSPSWTFGQGTRVEIK"}}, "settings_in_all_cases": "remark: other sources report otherwise", "key": {"[1]": {"target": "T1, recombinant soluble homotrimeric HA of A/swine/Ontario/01911-2/99 (H4N6) (Influenza A virus A/Swine/Ontario/01911-2/99 (H4N6))", "assay": "HA microarray, BCC supernatant"}, "[2]": {"target": "T2, recombinant soluble homotrimeric HA of A/Netherlands/219/03 (H7N7) (Influenza A virus A/Netherlands/219/03(H7N7))", "assay": "HA microarray, BCC supernatant"}, "[3]": {"target": "recombinant soluble homotrimeric HA of A/Japan/305/57 (H2N2) (Influenza A virus A/Japan/305/1957(H2N2))", "assay": "HA microarray, BCC supernatant"}, "[4]": {"target": "T3, recombinant soluble homotrimeric HA of A/Vietnam/1203/04 (H5N1) (Influenza A virus A/VietNam/1203/2004(H5N1))", "assay": "HA microarray, BCC supernatant"}, "[5]": {"target": "T4, recombinant soluble homotrimeric HA of A/duck/Yangzhou/02/05 (H8N4) (Influenza A virus A/duck/Yangzhou/02/2005(H8N4))", "assay": "HA microarray, BCC supernatant"}, "[6]": {"target": "T1, recombinant soluble homotrimeric HA of …", "assay": "trimeric HA microarray, transfection supernatant set 5"}, "[7]": {"target": "recombinant soluble homotrimeric HA of A/South Carolina/1/18 (H1N1) (Influenza A virus A/South Carolina/1/18 (H1N1))", "assay": "trimeric HA microarray, transfection supernatant set 5"}, "[8]": {"target": "recombinant soluble homotrimeric HA of A/Egypt/3300-NAMRU3/08 (H5N1) (Influenza A virus A/Egypt/3300-NAMRU3/2008(H5N1))", "assay": "trimeric HA microarray, transfection supernatant set 5"}, "[9]": {"target": "recombinant soluble homotrimeric HA of A/Hong Kong/156/97 (H5N1) (Influenza A virus A/Hong Kong/156/97 (H5N1))", "assay": "trimeric HA microarray, transfection supernatant set 5"}, "[10]": {"target": "recombinant soluble homotrimeric HA of A/northern shoveler/California/HKWF115/07 (H6) (Influenza A virus A/northern shoveler/California/HKWF115/2007(H6N1))", "assay": "trimeric HA microarray, transfection supernatant set 5"}, "[11]": {"target": "recombinant soluble homotrimeric HA of A/Anhui/1/05 (H5N1) (Influenza A virus A/Anhui/1/2005(H5N1))", "assay": "trimeric HA microarray, transfection supernatant set 5"}, "[12]": {"target": "T3, recombinant soluble homotrimeric HA of …", "assay": "trimeric HA microarray, transfection supernatant set 5"}, "[13]": {"target": "T5, recombinant soluble homotrimeric HA of A/chicken/Vietnam/NCVD-016/08 (H5N1) (Influenza A virus A/chicken/Vietnam/NCVD-016/2008(H5N1))", "assay": "trimeric HA microarray, transfection supernatant set 5"}, "[14]": {"target": "recombinant soluble homotrimeric HA of A/Indonesia/5/05 (H5N1) (Influenza A virus A/Indonesia/5/2005(H5N1))", "assay": "trimeric HA microarray, transfection supernatant set 5"}, "[15]": {"target": "T4, recombinant soluble homotrimeric HA of …", "assay": "trimeric HA microarray, transfection supernatant set 5"}, "[16]": {"target": "recombinant homotrimeric HA A/South Carolina/1/18 H1N1 (Influenza A virus A/South Carolina/1/18 (H1N1))", "assay": "protein microarray, purified IgG, trimeric HA"}, "[17]": {"target": "recombinant homotrimeric HA A/Hong Kong/156/97 H5N1 (Influenza A virus A/Hong Kong/156/97 (H5N1))", "assay": "protein microarray, purified IgG, trimeric HA"}, "[18]": {"target": "recombinant homotrimeric HA A/duck/Yangzhou/02/05 H8N4 (Influenza A virus A/duck/Yangzhou/02/2005(H8N4))", "assay": "protein microarray, purified IgG, trimeric HA"}, "[19]": {"target": "recombinant homotrimeric HA A/Japan/305/57 H2N2 (Influenza A virus A/Japan/305/1957(H2N2))", "assay": "protein microarray, purified IgG, trimeric HA"}, "[20]": {"target": "recombinant homotrimeric HA A/Vietnam/1203/04 H5N1 (Influenza A virus A/VietNam/1203/2004(H5N1))", "assay": "protein microarray, purified IgG, trimeric HA"}, "[21]": {"target": "recombinant homotrimeric HA A/California/4/09 H1N1 (Influenza A virus A/California/04/2009(H1N1))", "assay": "protein microarray, purified IgG, trimeric HA"}, "[22]": {"target": "recombinant homotrimeric HA A/Indonesia/5/05 H5N1 (Influenza A virus A/Indonesia/5/2005(H5N1))", "assay": "protein microarray, purified IgG, trimeric HA"}, "[23]": {"target": "recombinant homotrimeric HA A/Egypt/3300-NAMRU3/08 H5N1 (Influenza A virus A/Egypt/3300-NAMRU3/2008(H5N1))", "assay": "protein microarray, purified IgG, trimeric HA"}, "[24]": {"target": "recombinant homotrimeric HA A/Hong Kong/1073/99 H9N2 (Influenza A virus A/Hong Kong/1073/99 (H9N2))", "assay": "protein microarray, purified IgG, trimeric HA"}, "[25]": {"target": "recombinant homotrimeric HA A/Anhui/1/05 H5N1 (Influenza A virus A/Anhui/1/2005(H5N1))", "assay": "protein microarray, purified IgG, trimeric HA"}, "[26]": {"target": "T6, recombinant soluble homotrimeric HA of A/Wisconsin/67/05 (H3N2) (Influenza A virus A/Wisconsin/67/2005(H3N2))", "assay": "HA microarray, BCC supernatant"}, "[27]": {"target": "recombinant soluble homotrimeric HA of A/Solomon Islands/3/06 (H1N1) (Influenza A virus A/Solomon Islands/3/2006(H1N1))", "assay": "HA microarray, BCC supernatant"}, "[28]": {"target": "recombinant soluble homotrimeric HA of A/California/4/09 (H1N1) (Influenza A virus A/California/04/2009(H1N1))", "assay": "trimeric HA microarray, transfection supernatant set 2"}, "[29]": {"target": "T6, recombinant soluble homotrimeric HA of …", "assay": "trimeric HA microarray, transfection supernatant set 2"}, "[30]": {"target": "T2, recombinant soluble homotrimeric HA of …", "assay": "trimeric HA microarray, transfection supernatant set 2"}, "[31]": {"target": "T5, recombinant soluble homotrimeric HA of …", "assay": "trimeric HA microarray, transfection supernatant set 2"}, "[32]": {"target": "T4, recombinant soluble homotrimeric HA of …", "assay": "trimeric HA microarray, transfection supernatant set 2"}, "[33]": {"target": "recombinant homotrimeric HA A/Solomon Islands/3/06 H1N1 (Influenza A virus A/Solomon Islands/3/2006(H1N1))", "assay": "protein microarray, purified IgG, trimeric HA"}, "[34]": {"target": "recombinant homotrimeric HA A/Wisconsin/67/05 H3N2 (Influenza A virus A/Wisconsin/67/2005(H3N2))", "assay": "protein microarray, purified IgG, trimeric HA"}}}
{"binder": "B1", "values": [{"measurement": "Trimeric HA Binding: RLU", "setting": "[1]", "value": 350, "unit": "RLU"}, {"measurement": "Trimeric HA Binding: RLU", "setting": "[2]", "value": 909, "unit": "RLU"}, {"measurement": "Trimeric HA Binding: RLU", "setting": "[3]", "value": 142, "unit": "RLU"}, {"measurement": "Trimeric HA Binding: RLU", "setting": "[4]", "value": 306, "unit": "RLU"}, {"measurement": "Trimeric HA Binding: RLU", "setting": "[5]", "value": 332, "unit": "RLU"}, {"measurement": "Trimeric HA Binding: RLU", "setting": "[6]", "value": 14300, "unit": "RLU"}, {"measurement": "Trimeric HA Binding: RLU", "setting": "[7]", "value": 1120, "unit": "RLU"}, {"measurement": "Trimeric HA Binding: RLU", "setting": "[8]", "value": 14800, "unit": "RLU"}, {"measurement": "Trimeric HA Binding: RLU", "setting": "[9]", "value": 786, "unit": "RLU"}, {"measurement": "Trimeric HA Binding: RLU", "setting": "[10]", "value": 2370, "unit": "RLU"}, {"measurement": "Trimeric HA Binding: RLU", "setting": "[11]", "value": 7410, "unit": "RLU"}, {"measurement": "Trimeric HA Binding: RLU", "setting": "[12]", "value": 29500, "unit": "RLU"}, {"measurement": "Trimeric HA Binding: RLU", "setting": "[13]", "value": 5460, "unit": "RLU"}, {"measurement": "Trimeric HA Binding: RLU", "setting": "[14]", "value": 1760, "unit": "RLU"}, {"measurement": "Trimeric HA Binding: RLU", "setting": "[15]", "value": 11600, "unit": "RLU"}, {"measurement": "Trimeric HA Binding: RLU", "setting": "[16]", "value": 117, "unit": "RLU"}, {"measurement": "Trimeric HA Binding: RLU", "setting": "[17]", "value": 894, "unit": "RLU"}, {"measurement": "Trimeric HA Binding: RLU", "setting": "[18]", "value": 182, "unit": "RLU"}, {"measurement": "Trimeric HA Binding: RLU", "setting": "[19]", "value": 502, "unit": "RLU"}, {"measurement": "Trimeric HA Binding: RLU", "setting": "[20]", "value": 1060, "unit": "RLU"}, {"measurement": "Trimeric HA Binding: RLU", "setting": "[21]", "value": 238, "unit": "RLU"}, {"measurement": "Trimeric HA Binding: RLU", "setting": "[22]", "value": 108, "unit": "RLU"}, {"measurement": "Trimeric HA Binding: RLU", "setting": "[23]", "value": 730, "unit": "RLU"}, {"measurement": "Trimeric HA Binding: RLU", "setting": "[24]", "value": 588, "unit": "RLU"}, {"measurement": "Trimeric HA Binding: RLU", "setting": "[25]", "value": 10500, "unit": "RLU"}]}
{"binder": "B2", "values": [{"measurement": "Trimeric HA Binding: RLU", "setting": "[26]", "value": 49300, "unit": "RLU"}, {"measurement": "Trimeric HA Binding: RLU", "setting": "[27]", "value": 341, "unit": "RLU"}, {"measurement": "Trimeric HA Binding: RLU", "setting": "[2]", "value": 1340, "unit": "RLU"}, {"measurement": "Trimeric HA Binding: RLU", "setting": "[3]", "value": 246, "unit": "RLU"}, {"measurement": "Trimeric HA Binding: RLU", "setting": "[5]", "value": 596, "unit": "RLU"}, {"measurement": "Trimeric HA Binding: RLU", "setting": "[28]", "value": 3600, "unit": "RLU"}, {"measurement": "Trimeric HA Binding: RLU", "setting": "[29]", "value": 27800, "unit": "RLU"}, {"measurement": "Trimeric HA Binding: RLU", "setting": "[30]", "value": 5660, "unit": "RLU"}, {"measurement": "Trimeric HA Binding: RLU", "setting": "[31]", "value": 3290, "unit": "RLU"}, {"measurement": "Trimeric HA Binding: RLU", "setting": "[32]", "value": 4300, "unit": "RLU"}, {"measurement": "Trimeric HA Binding: RLU", "setting": "[16]", "value": 87, "unit": "RLU"}, {"measurement": "Trimeric HA Binding: RLU", "setting": "[19]", "value": 642, "unit": "RLU"}, {"measurement": "Trimeric HA Binding: RLU", "setting": "[33]", "value": 804, "unit": "RLU"}, {"measurement": "Trimeric HA Binding: RLU", "setting": "[21]", "value": 620, "unit": "RLU"}, {"measurement": "Trimeric HA Binding: RLU", "setting": "[34]", "value": 26600, "unit": "RLU"}]}
